In the DeepSol protein solubility set:

Experiment: soluble on expression in E. coli; label from the status in PepcDB or PDB records
With “LQERDIVPVDASYEVKELYVPENKLHLAKTDAETLPALKINKVDMQWVQVLAEGWATPLNGFMREREYLQCLHFDCLLDGGVINLSVPIVLTATHEDKERLDGCTAFALMYEGRRVAILRNPEFFEHRKEERCARQWGTTCKNHPYIKMVMEQGDWLIGGDLQVLDRVYWNDGLDQYRLTPTELKQKFKDMNADAVFAFQLRNPVHNGHALLMQDTHKQLLERGYRRPVLLLHPLGGWTKDDDVPLMWRMKQHAAVLEEGVLNPETTVVAIFPSPMMYAGPTEVQWHCRARMVAGANFYIVGRDPAGMPHPETGKDLYEPSHGAKVLTMAPGLITLEIVPFRVAAYNKKKKRMDYYDSEHHEDFEFISGTRMRKLAREGQKPPEGFMAPKAWTVLTEYYKSLEKA” the “soluble on expression in E. coli” value was “soluble”. With “LQIFSKEGLLIQEYGEKKRIPVTYDEIPPTLIHALIATEDQRFFEHPGVDVMGLGRAAVSMLKTGTKSQGGSTITMQVARNFFLSRKKTFLRKFNEIMLAIKIDRELSKEKILELYLNRVYLGNRAYGVGAAAMVYFGKSLKDLNLAELAMIAGLPQAPSTQNPIANP” the “soluble on expression in E. coli” value was “not soluble”. For “LREQPQQNECQLERLDALEPDNRIESEGGLIETWNPNNKQFRCAGVALSRATLQRNALRRPYYSNAPQEIFIQQGNGYFGMVFPGCPETFEEPQESEQGEGRRYRDRHQKVNRFREGDIIAVPTGIVFWMYNDQDTPVIAVSLTDIRSSNNQLDQMPRRFYLAGNHEQEFLQYQHQQGGKQEQENEGNNIFSGFKRDFLEDAFNVNRHIVDRLQGRNEDEEKGAIVKVKGGLSIISPPEKQARHQRGSRQEEDEDEEKQPRHQRGSRQEEEEDEDEERQPRHQRRRGEEEEEDKKERGGSQKGKSRRQGDNGLEETVCTAKLRLNIGPSSSPDIYNPEAGRIKTVTSLDLPVLRWLKLSAEHGSLHKNAMFVPHYNLNANSIIYALKGRARLQVVNCNGNTVFDGELEAGRALTVPQNYAVAAKSLSDRFSYVAFKTNDRAGIARLAGTSSVINNLPLDVVAATFNLQRNEARQLKSNNPFKFLVPARESENRASA”, the “soluble on expression in E. coli” value was “soluble”. In the case of “LSLLGVGAASLYVSDSPQPKMAQSQHDTTIDLSSQKDFFEYSLSGLGEHSLEEIQENIEESISQQNSLGIDVELFQTYLAYKRALSKLEPLEDTTLSLSQLQRLNEAILNLQLEYFNDQQISQLFDEENRLRQLAIEKLVIKTYEQDSDSQQLLLNQALSEQPEYIQKSERNNALTRQLDQTELLSSQDKYLARVELVGEEGAQRLQKLDEQRATFEIELTNYLEKRADILNDEFLDSEQKQLEIANLRKQSFETTQWRRIEALERIHDS”, the “soluble on expression in E. coli” value is reported as “not soluble”. With “LSWKRCAGCGGKIADRFLLYAMDSYWHSRCLKCSSCQAQLGDIGTSSYTKSGMILCRNDYIRLFGNSGACSACGQSIPASELVMRAQGNVYHLKCFTCSTCRNRLVPGDRFHYINGSLFCEHDRPTALINGHLNSGGSGGSGGSGGDVMVVGEPTLMGGEFGDEDERLITRLENTQFDAANGIDDETRESGSIEF” the “soluble on expression in E. coli” value was “soluble”. With “LTEKQKRFADEYIKCGNATEAARLAGYSSKTANRIATENLSKPVIKGYIDKVLSELEEKRVMGYTEAMQLFTEIARGEMEEEVIVSNGDGFSVVTKSADINQRVSALKEIVKRHVAGGRDKLQEELIQAQIDKLRADT” the “soluble on expression in E. coli” value was “not soluble”. For “LTGPLMLDTAPNAFDDQYEGCVNKMEEKAPLLLQEDFNMNAKLKVAWEEAKKRWNNIKPSRSYPKGFNDFHGTALVAYTGSIAVDFNRAVREFKENPGQFHYKAFHYYLTRALQLLSNGDCHSVYRGTKTRFHYTGAGSVRFGQFTSSSLSKKVAQSQEFFSDHGTLFIIKTCLGVYIKEFSFRPDQEAVLIPGYEVYQKVRTQGYNEIFLDSPKRKKSNYNCLYS”, the “soluble on expression in E. coli” value was “soluble”. For “LTSTLLRLSTDKIGAIIAIENQDSLESYVNIGYRVTSDFSPELLVTIFYNKQSPLHDGAVIVRDYQIVSVSSYFPMTRQLIDVSYGSRHRSALGLTEKCDAIVFIVSETTGKISVAVRGVIK”, the “soluble on expression in E. coli” value was “not soluble”. For “LVLKVVTVTRNLDPDDTARKKAPPPPKRAPTTALTLRSKSMTSELEELVDKDKPEEIVPASKPSRAAENMAVEPRVATIKQRPSSRCFPAGSDMNSVYERQGIAVMTPTVPGSPKAPFLGIPRGTMRRQKSIDSRIFLSGITEEERQFLAPPMLKFTRSLSMPDTSEDIPPPPQSVPPSPPPPSPTTYNCPKSPTPRVYGTIKPAFNQNSAAKVSPATRSDTVATMMREKGMYFRRELDRYSLDSEDLYSRNAGPQANFRNKRGQMPENPYSEVGKIASKAVYVPAKPARRKGMLVKQSNVEDSPEKTCSIPIPTIIVKEPSTSSSGKSSQGSSMEIDPQAPEPPSQLRPDESLTVSSPFAAAIAGAVRDREKRLEARRNSPAFLSTDLGDEDVGLGPPAPRTRPSMFPEEGDFADEDSAEQLSSPMPSATPREPENHFVGGAEASAPGEAGRPLNSTSKAQGPESSPAVPSASSGTAGPGNYVHPLTGRLLDPSSPLALALSARDRAMKESQQGPKGEAPKADLNKPLYIDTKMRPSLDAGFPTVTRQNTRGPLRRQETENKYETDLGRDRKGDDKKNMLIDIMDTSQQKSAGLLMVHTVDATKLDNALQEEDEKAEVEMKPDSSPSEVPEGVSETEGALQISAAPEPTTVPGRTIVAVGSMEEAVILPFRIPPPPLASVDLDEDFIFTEPLPPPLEFANSFDIPDDRAASVPALSDLVKQKKSDTPQSPSLNSSQPTNSADSKKPASLSNCLPASFLPPPESFDAVADSGIEEVDSRSSSDHHLETTSTISTVSSISTLSSEGGENVDTCTVYADGQAFMVDKPPVPPKPKMKPIIHKSNALYQDALVEEDVDSFVIPPPAPPPPPGSAQPGMAKVLQPRTSKLWGDVTEIKSPILSGPKANVISELNSILQQMNREKLAKPGEGLDSPMGAKSASLAPRSPEIMSTISGTRSTTVTFTVRPGTSQPITLQSRPPDYESRTSGTRRAPSPVVSPTEMNKETLPAPLSAATASPSPALSDVFSLPSQPPSGDLFGLNPAGRSRSPSPSILQQPISNKPFTTKPVHLWTKPDVADWLESLNLGEHKEAFMDNEIDGSHLPNLQKEDLIDLGVTRVGHRMNIERALKQLLDR”, the “soluble on expression in E. coli” value was “soluble”. In the case of “LVRSGRNITMQIIGYMTSHRKQHLEATDVAREFGYGREHFCRLFRKATGKTFKEFLTDLRLDDACRKLSGSSASIASIARECGFPDTRALQTAVQRKYGIRAQEYRERYENR”, the “soluble on expression in E. coli” value is reported as “soluble”. For “LVTKEVEYEDGDTVCKGFIAYHSSASKPLPCVMVAHDWGGRGEGACNKARQLAGMGYIGFAIDMYGNAKLGKDKAEKRALMTPFRENRGKLITRINAAFNKVVQLPEVDSEKVAAIGYCFGGLCVLDLIRSGAPLKGVVSFHGVLLPLEGESNKSLNAKVLILHGYDDPLVPIEQVNQFAIEMTERKVDWQVHVYGQTAHSFTDPGANDDEMGLHYNKLADQRSWQSTQLFLQELF”, the “soluble on expression in E. coli” value was “not soluble”. With “MAAAALREQLNALLSSMFASGLVDEQFQQLQMLQEDGGTPGFVAEVVTLFCDDADRIISELAALLDQPIVDFDKVDAYVHQLKGSSASVGAQKVKFTCMQFRQLCQDKNRDGCIMALAVVRNEFYDLRNKFQTMLQLEQQIQAQQ” the “soluble on expression in E. coli” value was “soluble”. In the case of “MAAARIPMSDNLPWKTWTPDDLAPPPAEFVPMAESEETIIEEVEPSLEQQLAQLQMQAHEQGYQAGIAEGRQQGHEQGYQEGLAQGLEQGLAEAKAQQAPIHARMQQLVSEFQTTLDALDSVIASRLMQMALEAARQVIGQTPTVDNSALIKQIQQLLQQEPLFSGKPQLRVHPDDLQRVDDMLGATLSLHGWRLRGDPTLHPGGCKVSADEGDLDASVATRWQELCRLAAPGVV”, the “soluble on expression in E. coli” value is reported as “soluble”. In the case of “MAAECATQRAPGSVVELLGKSYPQDDHSNLTRKVLTRVGRNLHNQQHHPLWLIKERVKEHFYKQYVGRFGTPLFSVYDNLSPVVTTWQNFDSLLIPADHPSRKKGDNYYLNRTHMLRAHTSAHQWDLLHAGLDAFLVVGDVYRRDQIDSQHYPIFHQLEAVRLFSKHELFAGIKDGESLQLFEQSSRSAHKQETHTMEAVKLVEFDLKQTLTRLMAHLFGDELEIRWVDCYFPFTHPSFEMEINFHGEWLEVLGCGVMEQQLVNSAGAQDRIGWAFGLGLERLAMILYDIPDIRLFWCEDERFLKQFCVSNINQKVKFQPLSKYPAVINDISFWLPSENYAENDFYDLVRTIGGDLVEKVDLIDKFVHPKTHKTSHCYRITYRHMERTLSQREVRHIHQALQEAAVQLLGVEGRF”, the “soluble on expression in E. coli” value is reported as “soluble”. In the case of “MAAGFGRCCRVLRSISRFHWRSQHTKANRQREPGLGFSFEFTEQQKEFQATARKFAREEIIPVAAEYDKTGEYPVPLIRRAWELGLMNTHIPENCGGLGLGTFDACLISEELAYGCTGVQTAIEGNSLGQMPIIIAGNDQQKKKYLGRMTEEPLMCAYCVTEPGAGSDVAGIKTKAEKKGDEYIINGQKMWITNGGKANWYFLLARSDPDPKAPANKAFTGFIVEADTPGIQIGRKELNMGQRCSDTRGIVFEDVKVPKENVLIGDGAGFKVAMGAFDKTRPVVAAGAVGLAQRALDEATKYALERKTFGKLLVEHQAISFMLAEMAMKVELARMSYQRAAWEVDSGRRNTYYASIAKAFAGDIANQLATDAVQILGGNGFNTEYPVEKLMRDAKIYQIYEGTSQIQRLIVAREHIDKYKN”, the “soluble on expression in E. coli” value is reported as “soluble”. In the case of “MAAGIVASRRLRDLLTRRLTGSNYPGLSISLRLTGSSAQEEASGVALGEAPDHSYESLRVTSAQKHVLHVQLNRPNKRNAMNKVFWREMVECFNKISRDADCRAVVISGAGKMFTAGIDLMDMASDILQPKGDDVARISWYLRDIITRYQETFNVIERCPKPVIAAVHGGCIGGGVDLVTACDIRYCAQDAFFQVKEVDVGLAADVGTLQRLPKVIGNQSLVNELAFTARKMMADEALGSGLVSRVFPDKEVMLDAALALAAEISSKSPVAVQSTKVNLLYSRDHSVAESLNYVASWNMSMLQTQDLVKSVQATTENKELKTVTFSKL”, the “soluble on expression in E. coli” value is reported as “soluble”. In the case of “MAAPAASGLSRQVRSFSTSVVRPFAKLVRPPVQVYGIEGRYATALYSAASKEKKLDQVEKELLRVGQLLKDPKVSLAVLNPYIKRTVKVKSLNDITKREKFSPLTANLMNLLAENGRLGNTQGIISAFSTIMSVHRGEVPCTVTTASPLDDAVLSELKTVLKSFLSPNQILKLEIKTDPSIMGGMIVRIGEKYVDMSAKSKIQKLSKAMREML”, the “soluble on expression in E. coli” value is reported as “soluble”. With “MAAPLIPVLTAPTAAGKTALALRLAREYGLEIVAADAFTVYRGLDLGTAKPTPQERASVPHHLLDVVDVTQSYDVAQYAAQAEAAIVDILARGRLPLVVGGTGFYLSALSRGLPLTPPSDPKMRAALEAELQERGLDALLAEIEQANPAEAARMERNPRRVVRALEVYRAAGRFPGEFGYSPPAFQYQVFAFSPPAAEMEQRVQERTAAMLRAGWPQEAQWLAGQVPPEQEPRPTVWQALGYAEALAVAQGRLSLAGAEQAIALATRQYGKRQLTWMRRQLGAEVQSPDAAEAHLRAFLERSGAPSLEHHHHHH” the “soluble on expression in E. coli” value was “not soluble”. For “MAAPVDLELKKAFAELQAKMVDTQQKVKLADLQIEQLSRVKKHANLTHGEITSLPESTRMFEGAGRMFILQSKGEISNQLLEKQKTADDKIKELEQKKTYLERSVKDAEDNIREMLMSRRAQ”, the “soluble on expression in E. coli” value was “not soluble”. With “MAAQIPESDQIKQFKEFLGTYNKLTETCFLDCVKDFTTREVKPEETTCSEHCLQKYLKMTQRISMRFQEYHIQQNEALAAKAGLLGQPR” the “soluble on expression in E. coli” value was “soluble”.
